Results reported in paper PMC2838536 (Human Molecular Genetics, 2010).

T1: his6-tagged full-length Pam18 (S. cerevisiae, UniProt Q07914 1-168)
T1 sequence: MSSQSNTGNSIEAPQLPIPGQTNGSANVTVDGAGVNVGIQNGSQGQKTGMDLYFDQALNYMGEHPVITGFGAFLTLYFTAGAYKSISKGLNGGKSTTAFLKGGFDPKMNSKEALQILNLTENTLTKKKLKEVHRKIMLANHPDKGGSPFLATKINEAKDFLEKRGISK


Experiments:
[1] = molecular target: T1, his6-tagged full-length Pam18; assay: pull-down
[2] = molecular target: GST-Magmas_(F92G) (in MagmasJ+T) (human); assay: pull-down

| Binder | binding result [1] | fold reduction in the binding affinity against wild-type Magmas [2] |
| --- | --- | --- |
| full-length GST-Magmas (natural protein) MAKYLAQIIVMGVQVVGRAFARALRQEFAASRAAADARGRAGHRSAAASNLSGLSLQEAQQILNVSKLSPEEVQKNYEHLFKVNDKSVGGSFYLQSKVVRAKERLDEELKIQAQEDREKGQMPHT | binds |  |
| his6-tagged Pam18J+T (domain or fragment) KSISKGLNGGKSTTAFLKGGFDPKMNSKEALQILNLTENTLTKKKLKEVHRKIMLANHPDKGGSPFLATKINEAKDFLEKRGISK |  | 2 fold |
